The record followed here is paper PMC9535766, “Structural insights into the assembly and activation of the IL‐27 signaling complex” (EMBO Reports, 2022).

Sequences and labels used below:
T1: mouse p28 (IL‐27p28), alone (mouse, UniProt Q8K3I6 29-234)
T1 construct: IL-27 p28 subunit, mouse; source: recombinantly produced
T1 sequence (looked up): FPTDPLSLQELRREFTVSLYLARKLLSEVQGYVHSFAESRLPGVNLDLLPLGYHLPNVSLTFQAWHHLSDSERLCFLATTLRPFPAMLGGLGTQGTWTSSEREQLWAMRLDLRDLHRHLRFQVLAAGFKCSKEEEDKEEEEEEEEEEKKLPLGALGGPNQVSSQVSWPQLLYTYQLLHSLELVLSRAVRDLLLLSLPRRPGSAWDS

T2: biotinylated mouse IL‐27Rα (amino acids 28–224) (mouse, UniProt O70394 28-224, N‐terminal biotinylated in vitro using EZ‐Link Sulfo‐NHS‐SS‐Biotin at pH 6.5)
T2 chain: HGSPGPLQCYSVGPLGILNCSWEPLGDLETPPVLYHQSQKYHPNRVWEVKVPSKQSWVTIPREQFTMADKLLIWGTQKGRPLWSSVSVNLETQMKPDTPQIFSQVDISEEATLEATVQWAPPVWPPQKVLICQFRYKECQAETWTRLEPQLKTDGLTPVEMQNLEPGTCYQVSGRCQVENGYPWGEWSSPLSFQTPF

T3: C‐terminal biotinylated mouse GP130 with biotin acceptor peptide (mouse, UniProt Q00560 23-319, biotin on the biotin acceptor peptide (BirA ligase))
T3 chain: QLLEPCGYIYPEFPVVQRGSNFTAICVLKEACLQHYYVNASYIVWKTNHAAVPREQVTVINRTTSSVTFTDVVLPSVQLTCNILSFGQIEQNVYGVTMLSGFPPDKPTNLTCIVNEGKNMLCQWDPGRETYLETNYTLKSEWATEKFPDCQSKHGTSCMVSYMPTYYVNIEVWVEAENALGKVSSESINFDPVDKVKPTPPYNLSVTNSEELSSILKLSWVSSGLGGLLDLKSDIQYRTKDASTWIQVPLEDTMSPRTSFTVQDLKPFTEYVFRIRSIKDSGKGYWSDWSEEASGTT

T4: C‐terminal biotinylated mouse GP130 with biotin acceptor peptide (mouse, UniProt Q00560 23-319, biotin on the biotin acceptor peptide (BirA ligase))
T4 construct: GP130, murine, amino acids 23–319; also called biotinylated GP130; source: insect cells (pAcGP67‐A vector), purified; biotinylated with BirA ligase
T4 sequence (looked up): T3 chain

B1: biotinylated mouse IL‐27Rα (amino acids 28–224) (receptor, UniProt O70394 28-224, looked up)
chain: T2 chain
modifications: N‐terminal biotinylated in vitro using EZ‐Link Sulfo‐NHS‐SS‐Biotin at pH 6.5
notes: IL-27 receptor alpha, murine, amino acids 28–224; Same construct as m2, chemically biotinylated for capture on the streptavidin chip; also called biotinylated IL‐27Rα; source: Trichoplusia ni (High Five) cells, baculovirus, secreted; purified (Ni-NTA, SEC); biotinylated in vitro
B2: murine IL‐27, linker‐connected single‐chain variant (p28 + EBI3) (ligand)
chain: GSYTETALVALSQPRVQCHASRYPVAVDCSWTPLQAPNSTRSTSFIATYRLGVATQQQSQPCLQRSPQASRCTIPDVHLFSTVPYMLNVTAVHPGGASSSLLAFVAERIIKPDPPEGVRLRTAGQRLQVLWHPPASWPFPDIFSLKYRLRYRRRGASHFRQVGPIEATTFTLRNSKPHAKYCIQVSAQDLTDYGKPSDWSLPGQVESAPHKPRGGGGSGGGGSVESGENLYFQGFPTDPLSLQELRREFTVSLYLARKLLSEVQGYVHSFAESRLPGVNLDLLPLGYHLPNVSLTFQAWHHLSDSERLCFLATTLRPFPAMLGGLGTQGTWTSSEREQLWAMRLDLRDLHRHLRFQVLAAGFKCSKEEEDKEEEEEEEEEEKKLPLGALGGPNQVSSQVSWPQLLYTYQLLHSLELVLSRAVRDLLLLSLPRRPGSAWDS

In assay [1] the target is T1, mouse p28 (IL‐27p28), alone. The experiment in a line: SPR; Biacore T100; biotinylated receptor immobilised on SA chip (~100 RU); p28 flowed, 1:2 dilution series from 20 μM; 25°C; 10 mM HEPES, 150 mM NaCl, 0.05% TWEEN‐20, pH 7.2, 0.5% BSA; equilibrium analysis. The conditions noted are these: both partners purified. (Surface plasmon resonance follows binding to a sensor surface in real time, without labels.)

The target of assay [2] is T2, biotinylated mouse IL‐27Rα (amino acids …). The experiment in a line: SPR.
Assay [3] concerns the target T3, C‐terminal biotinylated mouse GP130 …. Kind of assay: SPR.
For assay [4], the target named is B1. The experiment in a line: SPR; Biacore T100; biotinylated receptor immobilised on SA chip (~100 RU); IL‐27 flowed, 1:3 dilution series from 100 nM, 30 μl/min; 25°C; 10 mM HEPES, 150 mM NaCl, 0.05% TWEEN‐20, pH 7.2, 0.5% BSA; kinetic 1:1 fit. The settings on record: both partners purified.
Assay [5] has as its target T4, C‐terminal biotinylated mouse GP130 …. The description is as above. The settings on record: both partners purified.

Consider B1, for which the dissociation constant Kd (commonly the equilibrium constant for the complex coming apart) in assay [1] came out at 1700 nM.
Regarding B2, the koff – broadly, a measure of how fast the partners let go of each other – in assay [2] amounted to 0.001 s⁻¹; in assay [3], 0.02 s⁻¹. Moreover, the equilibrium dissociation constant (Kd) in assay [4] was found to be 0.28 nM; in assay [5], 2.1 nM.
